Measurements published in US20020111475A1.

Target: flt3 on murine WWF7 cells
Test: cell-based or functional assay

Row | Sp.Ac. MUT / Sp.Ac. WT (WWF7 cell proliferation units/ml per flt3-L ng/ml by ELISA, yeast supernatant) (ratio to wild type) | specific activity of WT protein (WWF7 cell proliferation, yeast supernatant), averaged over 11 independent assays | Substance
1 | 1 | 0.95 units/ng | wild type flt3-L (yeast-derived recombinant human flt3 Ligand) (from UniProt P49771 24-179)
2 | 0.02 | – | flt3-L mutant K116E (from UniProt P49771 24-179) (ligand)
3 | 0 | – | flt3-L mutant F81S (from UniProt P49771 24-179) (ligand)
4 | 2.16 | – | flt3-L mutant Q122R (from UniProt P49771 24-179) (ligand)
5 | 1.71 | – | flt3-L mutant H8Y (from UniProt P49771 24-179) (ligand)
6 | 0.07 | – | flt3-L mutant L27P (from UniProt P49771 24-179) (ligand)
7 | 0 | – | flt3-L mutant H8R (from UniProt P49771 24-179) (ligand)
8 | 2.19 | – | flt3-L mutant W118R (from UniProt P49771 24-179) (ligand)
9 | 0.69 | – | flt3-L mutant L26F (from UniProt P49771 24-235) (ligand)
10 | 2.88 | – | flt3-L mutant K84E (from UniProt P49771 24-179) (ligand)
11 | 0 | – | flt3-L mutant I11Y (from UniProt P49771 24-179) (ligand)
12 | 1.63 | – | flt3-L mutant K84T (from UniProt P49771 24-235) (ligand)
13 | 0.58 | – | flt3-L mutant V34L (from UniProt P49771 24-235) (ligand)
